{
  "source": "patent US20200317768A1",
  "about": "(published 2020)",
  "binders": {"B1": {"name": "MS_M103205H000-SG1/M103202LO00-SK1 (antibody, human IgG1, kappa, V domains shown)", "VH": "QVTLKESGPVLVKPTETLTLTCTVSGIDLSSYDISWVRQAPGKGLEWVGIISYAGSTYYASWAKGRLTISKDTSKNQVVLTMTNMDPVDTATYYCARGVPAYSTGGDLWGQGTLVTVSS", "VL": "DIVMTQSPATLSLSPGERATLSCQSSQSVYDNNWLSWFQQKPGQPPKLLIYWASTLASGVPSRFSGSGSGTDFTLTISSLQPEDAATYYCAGGYGGGLYAFGQGTKVEIKR", "notes": "Humanized MST1032, not pH-dependent; also called MS1032LO00-SG1; Ab001"}},
  "key": {"Mouse latent myostatin [1]": {"biological_target": "T1, Mouse latent myostatin (mouse, UniProt O08689 26-267; O08689 268-376)", "T1 construct": "signal 1-24", "T1 sequence 1": "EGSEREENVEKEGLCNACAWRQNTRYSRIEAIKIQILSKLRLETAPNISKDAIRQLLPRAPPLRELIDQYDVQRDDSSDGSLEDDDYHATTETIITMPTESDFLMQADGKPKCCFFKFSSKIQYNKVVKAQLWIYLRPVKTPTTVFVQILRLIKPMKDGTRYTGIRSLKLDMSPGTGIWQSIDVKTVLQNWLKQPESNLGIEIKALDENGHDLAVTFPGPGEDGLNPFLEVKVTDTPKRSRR", "T1 sequence 2": "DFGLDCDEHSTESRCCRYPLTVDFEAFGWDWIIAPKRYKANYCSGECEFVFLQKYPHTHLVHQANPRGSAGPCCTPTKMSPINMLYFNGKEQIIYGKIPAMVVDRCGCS", "assay": "SPR (BIACORE T200), 37 C, pH7.4, 1:1 fit; title prints avidity, by the text the affinity condition (capture 18.5 RU); pH 7.4", "experimental": "(§1) The kinetic parameters of anti-latent myostatin antibodies against human, cynomolgus monkey (cyno), and mouse latent myostatin were assessed at 37° C. at pH7.4 using a BIACORE® T200 instrument (GE Healthcare). ProA/G (Pierce) was immobilized onto all flow cells of a CM4 chip using amine coupling kit (GE Healthcare). Anti-latent myostatin antibody and analytes were prepared in ACES pH7.4 (20 mM ACES, 150 mM NaCl, 1.2 mM CaCl₂), 0.05% TWEEN® 20, 0.005% NaN₃). […] Then human, cyno, or mouse latent myostatin was injected at 3.125 to 50 nM prepared by two-fold serial dilution, followed by dissociation. The sensor surface was regenerated with 25 mM NaOH. Kinetic parameters were determined by processing and fitting the data to a 1:1 binding model using BIACORE® T200 Evaluation software, version 2.0 (GE Healthcare).\n(§2) All experimental settings were the same as in Example 7, except that measurements were also performed in ACES pH5.8 buffer in addition to ACES pH7.4 condition. Some antibodies were only measured against human latent myostatin. Antibody capture level was aimed at 185 RU and 18.5 RU, for avidity and affinity assay, respectively. Kinetic parameters were determined using 1:1 Binding fitting using BIACORE® T200 Evaluation software, version 2.0 (GE Healthcare)."}, "Human latent myostatin [2]": {"biological_target": "T2, Human latent myostatin (human, UniProt O14793 25-266; O14793 267-375)", "T2 construct": "Biotinylated in the ELISAs; also called human myostatin latent form", "T2 sequence 1": "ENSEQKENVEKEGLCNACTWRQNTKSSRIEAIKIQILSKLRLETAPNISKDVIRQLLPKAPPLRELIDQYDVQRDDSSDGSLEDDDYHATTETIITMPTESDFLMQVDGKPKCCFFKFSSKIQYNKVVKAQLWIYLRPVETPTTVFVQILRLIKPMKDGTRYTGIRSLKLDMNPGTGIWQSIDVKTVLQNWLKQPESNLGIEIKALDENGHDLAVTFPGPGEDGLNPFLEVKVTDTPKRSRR", "T2 sequence 2": "T1 sequence 2", "assay": "SPR (BIACORE T200), 37 C, pH7.4, 1:1 fit; title prints avidity, by the text the affinity condition (capture 18.5 RU); pH 7.4", "experimental": "as §1, §2"}, "Human latent myostatin [3]": {"biological_target": "T2, Human latent myostatin", "assay": "SPR (BIACORE), additional dissociation phase at pH5.8 after dissociation at pH7.4, Scrubber 2.0 fit", "experimental": "Each amino acid in the CDRs was individually mutated to histidine using In-Fusion HD Cloning Kit (Clontech Inc, or Takara Bio company) according to the manufacturer's instructions. […] All histidine-substituted variants were evaluated by a modified BIACORE® assay as compared to that described above. Briefly, an additional dissociation phase at pH5.8 was integrated into the BIACORE® assay immediately after the dissociation phase at pH7.4. This is to assess the pH-dependent dissociation between antibody (Ab) and antigen (Ag) from the complexes formed at pH7.4 as opposed to the corresponding dissociation at pH5.8. The dissociation rate at pH5.8 buffer was determined by processing and fitting data using the Scrubber 2.0 (BioLogic Software) curve fitting software.\nAntibodies with a combination of these mutations in the CDRs were then generated."}, "Mouse latent myostatin [4]": {"biological_target": "T1, Mouse latent myostatin", "assay": "SPR (BIACORE T200), 37 C, pH7.4, avidity condition (capture 185 RU), 1:1 fit; pH 7.4"}, "[5]": {"biological_target": "T3, Cynomolgus monkey latent myostatin (cynomolgus monkey, UniProt Q95J86 25-266; Q95J86 267-375)", "T3 construct": "signal 1-24; also called Cyno latent myostatin", "T3 sequence 1": "T2 sequence 1 with V52A", "T3 sequence 2": "T1 sequence 2", "assay": "SPR (BIACORE T200), 37 C, pH7.4, avidity condition (capture 185 RU), 1:1 fit; pH 7.4"}, "Human latent myostatin [6]": {"biological_target": "T2, Human latent myostatin", "assay": "SPR (BIACORE T200), 37 C, pH7.4, avidity condition (capture 185 RU), 1:1 fit; pH 7.4"}, "Mouse latent myostatin [7]": {"biological_target": "T1, Mouse latent myostatin", "assay": "SPR (BIACORE T200), 37 C, pH5.8, 1:1 fit; title prints avidity, by the text the affinity condition (capture 18.5 RU); pH 5.8", "experimental": "as §1, §2"}, "[8]": {"biological_target": "T3, Cynomolgus monkey latent myostatin", "assay": "SPR (BIACORE T200), 37 C, pH5.8, 1:1 fit; title prints avidity, by the text the affinity condition (capture 18.5 RU); pH 5.8", "experimental": "as §1, §2"}},
  "note": "Numbering of substitutions follows the chain as printed.",
  "data": [
    {"binder": "B1", "values": [
      {"measurement": "Kd", "setting": "Mouse latent myostatin [1]", "value": 0.122, "unit": "nM"},
      {"measurement": "koff", "setting": "Mouse latent myostatin [1]", "value": 0.00016, "unit": "s⁻¹"},
      {"measurement": "kon", "setting": "Mouse latent myostatin [1]", "value": "1.31e+06", "unit": "M⁻¹ s⁻¹"},
      {"measurement": "Kd", "setting": "Human latent myostatin [2]", "value": 0.23, "unit": "nM"},
      {"measurement": "koff", "setting": "Human latent myostatin [2]", "value": 0.000245, "unit": "s⁻¹"},
      {"measurement": "kon", "setting": "Human latent myostatin [2]", "value": "1.07e+06", "unit": "M⁻¹ s⁻¹"},
      {"measurement": "koff", "setting": "Human latent myostatin [3]", "value": "2.92e-05", "unit": "s⁻¹"},
      {"measurement": "Kd", "setting": "Mouse latent myostatin [4]", "value": 0.0471, "unit": "nM"},
      {"measurement": "koff", "setting": "Mouse latent myostatin [4]", "value": "7.18e-05", "unit": "s⁻¹"},
      {"measurement": "kon", "setting": "Mouse latent myostatin [4]", "value": "1.52e+06", "unit": "M⁻¹ s⁻¹"},
      {"measurement": "Kd", "setting": "[5]", "value": 0.066, "unit": "nM"},
      {"measurement": "koff", "setting": "[5]", "value": "8.08e-05", "unit": "s⁻¹"},
      {"measurement": "kon", "setting": "[5]", "value": "1.21e+06", "unit": "M⁻¹ s⁻¹"},
      {"measurement": "Kd", "setting": "Human latent myostatin [6]", "value": 0.075, "unit": "nM"},
      {"measurement": "koff", "setting": "Human latent myostatin [6]", "value": "9.52e-05", "unit": "s⁻¹"},
      {"measurement": "kon", "setting": "Human latent myostatin [6]", "value": "1.27e+06", "unit": "M⁻¹ s⁻¹"},
      {"measurement": "Kd", "setting": "Mouse latent myostatin [7]", "value": 0.0438, "unit": "nM"},
      {"measurement": "koff", "setting": "Mouse latent myostatin [7]", "value": "7.08e-05", "unit": "s⁻¹"},
      {"measurement": "kon", "setting": "Mouse latent myostatin [7]", "value": "1.62e+06", "unit": "M⁻¹ s⁻¹"},
      {"measurement": "Kd", "setting": "[8]", "value": 0.139, "unit": "nM"},
      {"measurement": "koff", "setting": "[8]", "value": 0.000196, "unit": "s⁻¹"},
      {"measurement": "kon", "setting": "[8]", "value": "1.41e+06", "unit": "M⁻¹ s⁻¹"}
    ]}
  ]
}
